# Reference: publication PMC10586629
# Biological target: EDE1-C10 IgG1
# Assay: shotgun alanine-scanning mutagenesis library binding screen
# Conditions: read off a plot
row,Substance,percent of parent [% WT]
1,wild-type DENV2 16681 prM/E expressed in HEK-293T cells G78A,44
2,wild-type DENV2 16681 prM/E expressed in HEK-293T cells I113A,73
3,wild-type DENV2 16681 prM/E expressed in HEK-293T cells K310A,-4
4,wild-type DENV2 16681 prM/E expressed in HEK-293T cells L82A,57
5,wild-type DENV2 16681 prM/E expressed in HEK-293T cells M6A,82
6,wild-type DENV2 16681 prM/E expressed in HEK-293T cells N153A,61
7,wild-type DENV2 16681 prM/E expressed in HEK-293T cells Q77A,72
8,wild-type DENV2 16681 prM/E expressed in HEK-293T cells T155A,81
9,wild-type DENV2 16681 prM/E expressed in HEK-293T cells V97A,74
10,wild-type DENV2 16681 prM/E expressed in HEK-293T cells V308A,53
11,wild-type DENV2 16681 prM/E expressed in HEK-293T cells V309A,57
